This passage reports activity (units/g cells) results from patent publication US5470740.

The test system of the series is NsiI restriction endonuclease (Neisseria sicca BRL 397). In words: cleavage_in_vitro. To be noted: crude sonicated extract, REact 3 buffer, 37 C, 1 h; each of pUC123 and pUC140.

lambda DNA showed an activity (units/g cells) above 26000.
